Patent JP2003261460A

Target: Flt-1 (VEGFR-1, fms-like tyrosine kinase-1) of wild-type mice (WF) (mouse) (UniProt P35969)
Experiment: cell-based or functional assay

Sequence of UniProt P35969 (P35969 23-1333 S1181G): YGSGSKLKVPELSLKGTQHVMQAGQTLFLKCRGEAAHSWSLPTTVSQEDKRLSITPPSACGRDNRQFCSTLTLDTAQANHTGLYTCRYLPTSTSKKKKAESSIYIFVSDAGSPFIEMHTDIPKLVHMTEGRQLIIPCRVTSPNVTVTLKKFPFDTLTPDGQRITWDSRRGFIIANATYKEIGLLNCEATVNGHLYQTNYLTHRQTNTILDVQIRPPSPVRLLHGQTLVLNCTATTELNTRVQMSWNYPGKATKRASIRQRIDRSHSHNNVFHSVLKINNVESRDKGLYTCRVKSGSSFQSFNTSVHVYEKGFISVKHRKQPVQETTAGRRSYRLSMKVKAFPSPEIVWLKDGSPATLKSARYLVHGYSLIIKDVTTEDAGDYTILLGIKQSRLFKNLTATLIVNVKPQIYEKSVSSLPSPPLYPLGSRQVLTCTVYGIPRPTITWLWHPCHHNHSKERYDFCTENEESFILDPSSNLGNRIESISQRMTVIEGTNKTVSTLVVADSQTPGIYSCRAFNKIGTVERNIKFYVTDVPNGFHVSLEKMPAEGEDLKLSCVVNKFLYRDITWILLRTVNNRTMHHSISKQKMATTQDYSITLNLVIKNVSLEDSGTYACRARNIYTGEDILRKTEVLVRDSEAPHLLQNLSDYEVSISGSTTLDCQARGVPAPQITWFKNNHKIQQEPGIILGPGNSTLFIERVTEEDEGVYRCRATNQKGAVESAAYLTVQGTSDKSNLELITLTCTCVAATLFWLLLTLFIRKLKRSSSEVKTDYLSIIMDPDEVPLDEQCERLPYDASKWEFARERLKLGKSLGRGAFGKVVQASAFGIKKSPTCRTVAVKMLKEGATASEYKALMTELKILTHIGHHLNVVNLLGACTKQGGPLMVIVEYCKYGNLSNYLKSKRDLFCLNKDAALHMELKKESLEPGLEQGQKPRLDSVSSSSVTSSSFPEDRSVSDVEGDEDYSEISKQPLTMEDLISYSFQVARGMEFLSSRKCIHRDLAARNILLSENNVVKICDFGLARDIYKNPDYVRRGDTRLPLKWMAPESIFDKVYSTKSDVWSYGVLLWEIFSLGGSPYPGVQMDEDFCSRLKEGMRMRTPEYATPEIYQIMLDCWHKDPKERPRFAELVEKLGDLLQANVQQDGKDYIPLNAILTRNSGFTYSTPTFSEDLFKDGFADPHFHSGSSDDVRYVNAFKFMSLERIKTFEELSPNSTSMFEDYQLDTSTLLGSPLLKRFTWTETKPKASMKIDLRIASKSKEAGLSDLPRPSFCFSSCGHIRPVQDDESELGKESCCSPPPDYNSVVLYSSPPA

MMP-9誘導 (肺組織培養, ゼラチン基質ザイモグラフィー): 40 ng/mL
Substance: VEGF (R&D社製) (ligand)
